The text below walks through data of article PMC9709071.

Assay [1] concerns the target Recombinant DR3-Fc (UniProt Q93038). The assay can be described thus: ELISA; DR3-Fc immobilised non-specifically on Maxisorp plates (overnight, 4 °C), casein block; TL1A added in 3-fold dilutions, overnight 4 °C; bound TL1A detected with polyclonal rabbit anti-human TL1A-biotin and streptavidin-HRP; concentrations normalised to TL1A trimers; triplicate. On the technique in general: ELISA stands for enzyme-linked immunosorbent assay.

In assay [2] the target is Fc-scTL1A (TL1W14) (human) (UniProt O95150). The assay can be described thus: SEC-MALS; Waters BEH SEC column, 25 °C, PBS pH 7.4, 5 µg of sample. (In gel filtration, larger molecules generally elute earlier.)
In the next assay the target is DcR3 (TNFRSF6B) (UniProt O95407). The assay can be described thus: ELISA; TL1A variants on DcR3; who was immobilised is not told for DcR3; triplicate.
DcR3 (TNFRSF6B), sequence (O95407 30-300): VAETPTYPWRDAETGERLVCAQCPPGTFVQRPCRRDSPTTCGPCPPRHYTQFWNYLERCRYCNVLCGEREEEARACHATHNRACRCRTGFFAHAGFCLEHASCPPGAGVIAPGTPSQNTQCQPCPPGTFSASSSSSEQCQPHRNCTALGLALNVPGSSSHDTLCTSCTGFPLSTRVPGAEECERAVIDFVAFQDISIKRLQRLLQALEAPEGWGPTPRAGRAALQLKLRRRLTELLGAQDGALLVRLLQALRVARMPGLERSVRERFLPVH
Assay [3] deals with Recombinant DR3-Fc (UniProt Q93038). Nature of the assay: ELISA; receptor (DR3-Fc; DcR3) immobilised on Maxisorp plates, TL1A variant titrated in 3-fold dilutions, overnight 4 °C, detected with anti-human TL1A-biotin and streptavidin-HRP; concentrations normalised to TL1A trimer; triplicate.
Recombinant DR3-Fc, sequence (Q93038 25-199): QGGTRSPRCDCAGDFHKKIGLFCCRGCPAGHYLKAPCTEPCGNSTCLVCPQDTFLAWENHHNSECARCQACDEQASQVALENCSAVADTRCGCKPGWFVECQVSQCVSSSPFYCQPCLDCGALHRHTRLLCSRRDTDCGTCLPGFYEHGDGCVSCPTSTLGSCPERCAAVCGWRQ
The target in assay [4] is Fc-scTL1A (TL1W14) (human) (UniProt O95150). Nature of the assay: ELISA; reversed format: TL1A molecules immobilised, DR3 titrated.
Target sequence in this assay (O95150 other isoform, or with tags, fused parts or gaps): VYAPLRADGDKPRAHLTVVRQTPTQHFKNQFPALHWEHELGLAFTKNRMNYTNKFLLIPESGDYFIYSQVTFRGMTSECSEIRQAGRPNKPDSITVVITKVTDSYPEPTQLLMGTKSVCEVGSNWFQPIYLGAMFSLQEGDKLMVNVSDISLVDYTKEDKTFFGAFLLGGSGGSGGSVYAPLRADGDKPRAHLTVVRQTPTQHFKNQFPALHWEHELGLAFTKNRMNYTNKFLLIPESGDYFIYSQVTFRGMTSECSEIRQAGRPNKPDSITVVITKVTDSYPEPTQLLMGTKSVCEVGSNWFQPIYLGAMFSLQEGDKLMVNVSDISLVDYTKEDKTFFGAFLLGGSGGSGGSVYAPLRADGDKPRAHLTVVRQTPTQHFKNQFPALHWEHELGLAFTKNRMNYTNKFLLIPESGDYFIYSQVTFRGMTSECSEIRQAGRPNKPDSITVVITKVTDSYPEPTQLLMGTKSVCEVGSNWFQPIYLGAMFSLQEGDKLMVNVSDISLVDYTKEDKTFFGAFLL
The target in assay [5] is HSA-scTL1A (TL1W15) (human) (UniProt O95150). Described as above.
HSA-scTL1A (TL1W15) (human), sequence (O95150 other isoform, or with tags, fused parts or gaps): as above
The target of another assay is DcR3 (UniProt O95407). The assay can be described thus: ELISA; receptor (DR3-Fc; DcR3) immobilised on Maxisorp plates, TL1A variant titrated in 3-fold dilutions, overnight 4 °C, detected with anti-human TL1A-biotin and streptavidin-HRP; concentrations normalised to TL1A trimer; triplicate.
DcR3, sequence (O95407 30-300): as the sequence (O95407 30-300) above

What is called EC50 is the concentration that produces a half-maximal response. As a reminder, the stoichiometry N is a count of units in the complex or per binding partner.

Where “and” joins values, the source holds several entries; their conditions need not be identical. Equal values may be shown once.

For the substance Fc-His-TL1A (TL1W61) (complex), in the assay with Recombinant DR3-Fc [1], the EC50 was found to be 0.0102 µM.

Take “Fc-scTL1A (TL1W14) (from UniProt O95150 84-251; O95150 84-251; O95150 84-251) (Fc fusion)”: the IFNg in C57BL/6 mice 6 h after Fc-scTL1A (i.p.) with anti-CD3 antibody (i.v.) in the assay with mouse DR3 (mouse) came to 750 pg/mL. Also, in assay [2], the stoichiometry N was 2 and 4. For the same substance, the EC50 was determined as 0.0065 µM with DcR3 (TNFRSF6B), 0.0262 µM in the assay with Recombinant DR3-Fc [3] and 0.0097 µM with Recombinant DR3-Fc [1].

In the case of “HSA-scTL1A (TL1W15) (from UniProt O95150 84-251; O95150 84-251; O95150 84-251) (ligand)”, the concentration giving a half-maximal response (EC50) in the assay with Recombinant DR3-Fc [1] worked out at 0.0292 µM.

Turning to “His-scTL1A TL1W19 (from UniProt O95150 84-251; O95150 84-251; O95150 84-251) (ligand)”, the EC50 in the assay with Recombinant DR3-Fc [1] is 0.0273 µM.

Take “Recombinant DR3-Fc (from UniProt Q93038 25-199) (Fc fusion)”: the EC50 in assay [4] stood at 0.0015 µM; in assay [5] it was 0.0038 µM.

On to “TL1W38 (L123K) (from UniProt O95150 1-251) (ligand)”, for which the EC50 in the assay with DcR3 (TNFRSF6B) was 0.0247 µM; in the assay with Recombinant DR3-Fc [3], 0.0295 µM; with Recombinant DR3-Fc [1] it was 0.0294 µM.

With “TL1W45 (E190F) (from UniProt O95150 1-251) (ligand)”, the concentration for a half-maximal effect (EC50) with DcR3 (TNFRSF6B) came out at 0.0212 µM; with Recombinant DR3-Fc [1] it was 0.0314 µM.

Take “TL1W80 (K111A) (from UniProt O95150 1-251) (ligand)”: the EC50 with DcR3 (TNFRSF6B) came out at 0.0898 µM; with DcR3 it was 0.0163 µM; with Recombinant DR3-Fc [1], 0.03 µM.

Take “TL1W92 (M158Y) (from UniProt O95150 1-251) (ligand)”: the figures for the EC50 in the assay with DcR3 (TNFRSF6B), with DcR3 and with Recombinant DR3-Fc [1] were 0.0692 µM, 0.0126 µM and 0.0166 µM, respectively.

In the case of “TL1W95 (Q167A) (from UniProt O95150 1-251) (ligand)”, the EC50 in the assay with DcR3 (TNFRSF6B) came to 0.176 µM; with DcR3 it was 0.032 µM; with Recombinant DR3-Fc [1], 0.0171 µM.

Consider “TL1W109 (S187L) (from UniProt O95150 1-251) (ligand)”, for which the EC50 with DcR3 (TNFRSF6B) is 0.0855 µM; in the assay with DcR3 it was 0.0155 µM; with Recombinant DR3-Fc [1] it was 0.0177 µM.

“TL1W122 (N207F) (from UniProt O95150 1-251) (ligand)”: the results for the EC50 in the assay with DcR3 (TNFRSF6B), with DcR3 and with Recombinant DR3-Fc [1] were 0.0585 µM, 0.0106 µM and 0.0302 µM, respectively.

As for “TL1W126 (F209W) (from UniProt O95150 1-251) (ligand)”, the EC50 in the assay with DcR3 turned out to be 0.0137 µM; in the assay with Recombinant DR3-Fc [3], 0.0568 µM.

For the substance “TL1W127 (Y238A) (from UniProt O95150 1-251) (ligand)”, the values for the concentration giving a half-maximal response (EC50) with DcR3 and with Recombinant DR3-Fc [3] were 0.0089 µM and 4.62 µM, respectively.

As for “TL1W129 (Y238K) (from UniProt O95150 1-251) (ligand)”, the EC50 with DcR3 turned out to be 0.009 µM; in the assay with Recombinant DR3-Fc [3] it was 0.446 µM.

“TL1W131 (Y238E) (from UniProt O95150 1-251) (ligand)”: the EC50 with DcR3 worked out at 0.0066 µM; with Recombinant DR3-Fc [3], 0.3 µM.

Regarding “TL1W132 (T239A) (from UniProt O95150 1-251) (ligand)”, the EC50 with DcR3 is 0.0272 µM; in the assay with Recombinant DR3-Fc [3], 0.144 µM.

With “TL1W136 (K240F) (from UniProt O95150 1-251) (ligand)”, the EC50 came out at 0.178 µM in the assay with DcR3 and 0.266 µM with Recombinant DR3-Fc [3].

With “TL1W137 (K240S) (from UniProt O95150 1-251) (ligand)”, the figures for the EC50 in the assay with DcR3 and in the assay with Recombinant DR3-Fc [3] were 0.0118 µM and 0.336 µM, respectively.
